Data taken from patent US20230095569A1 (published 2023).
Changes are numbered by the printed parent chain.

B1: humanized Ab15 (VHN1×VL2) (antibody, V domains shown)
VH: EVMLVESGGGLVQPGGSLRLSCAASGFTFSTYTMSWVRQTPGKRLEWVATIVGGGGYTYYLDSVKGRFTISRDNSKNTLYLQMNSLRAEDTAVYYCARMGLTQRNALDYWGQGTSITVSS
VL: DIVMTQSPLSLPVTPGEPASISCKSSQSLFNSGNQKNYLAWYLQKPGQPPKLLIYGASTRESGVPDRFTGSGFGTDFTLKISRVEAEDVGVYYCQNDHTYPLTFGAGTKLEIK
B2: IMB362 (antibody, V domains shown)
VH: QVQLQQPGAELVRPGASVKLSCKASGYTFTSYWINWVKQRPGQGLEWIGNIYPSDSYTNYNQKFKDKATLTVDKSSSTAYMQLSSPTSEDSAVYYCTRSWRGNSFDYWGQGTTLTVSS
VL: DIVMTQSPSSLTVTAGEKVTMSCKSSQSLLNSGNQKNYLTWYQQKPGQPPKLLIYWASTRESGVPDRFTGSGSGTDFTLTISSVQAEDLAVYYCQNDYSYPFTFGSGTKLEIKR
B3: IMAB362 (antibody, V domains shown)
VH: B2 VH
VL: B2 VL
B4: humanized Ab17 (VH5×VLN1) (antibody, V domains shown)
VH: QVQLQESGPGLVKPSQTLSLTCTVSGFSLTSYAISWVRQPAGKGLEWLGEIWTGGGTNYNSALKSRVSISKDNSKSQVFLKLSSVTAADTARYYCGRLSYGNSLDYWGQGTLVTVSS
VL: DIVMTQSPDSTTVLLGERATINCKSSQSLLNSGNQKNYLAWYQQKPGQPPKLLIYWASTRESGVPDRFSGSGSGTDFTLTISSLQAEDVAVYYCQNNFIYPLTFGPGTKLEIK
B5: humanized Ab10 (VHN1×VLN1) (antibody, V domains shown)
VH: EVMLVESGGGLVQPGGSLRLSCAASGFTFSSYTMSWVRQTPGKRLEWVATISVIGGNTYYVDSVKGRFTISRDKSKNTLYLQMNSLRAEDTAVYYCARLGQTQRNAMDYWGQGTLVTVSS
VL: B4 VL with T11L, T12A, L14S, L15A, I21M, W56G, N97D, F98Y, I99S, P106A
B6: humanized Ab15 (VH3×VLN1) (antibody, V domains shown)
VH: B1 VH with L11V, G42E, S75A, A88T, V93L, S115L
VL: B4 VL with T11L, T12A, L14S, L30F, W56G, S73F, N97D, F98H, I99T, P106A
B7: humanized Ab17 (VH1×VLN1) (antibody, V domains shown)
VH: B4 VH with Q5K, Q16E, A41P, T86Q
VL: B4 VL
B8: humanized Ab10 (VH3×VLN1) (antibody, V domains shown)
VH: B5 VH with M3Q, T40A, G42E, S75A, V93L
VL: B4 VL with T11L, T12A, L14S, L15A, I21M, W56G, N97D, F98Y, I99S, P106A
B9: Ab10 (antibody, V domains shown)
VH: B5 VH with Q13K, R19K, G42E, S75A, N84S, A88S, V93L, L115S
VL: DIVMTQSPSSLSVSAGEKVTMSCKSSQSLLNSGNQKNYLAWYQQKPGQPPKLLIYGASTRESGVPDRFTGSGSGTDFTLTISSVQAEDLAVYYCQNDYSYPLTFGAGTKLELK
B10: Ab17 (antibody, V domains shown)
VH: QVQLKESGPGLVAPSQSLSITCTVSGFSLTSYAISWVRQPPGKGLEWLGEIWTGGGTNYNSALKSRLSISKDNSKSQVFLKMNSLQTDDTARYYCGRLSYGNSLDYWGQGTTLTVSS
VL: B9 VL with S12T, S14T, A40T, G56W, I81V, D97N, Y98F, S99I, A106P
B11: chAb15 (antibody, V domains shown)
VH: B1 VH with G10D, Q13K, R19K, G42E, S75A, N84I, A88S, V93L
VL: B9 VL with A15E, M21L, S22N, L30F, S73F, Y98H, S99T, T108A
B12: Ab15 (antibody, V domains shown)
VH: B1 VH with G10D, Q13K, R19K, G42E, S75A, N84I, A88S, V93L
VL: B9 VL with A15E, M21L, S22N, L30F, S73F, Y98H, S99T, T108A
B13: chAb17 (antibody, V domains shown)
VH: B10 VH
VL: B9 VL with S12T, S14T, A40T, G56W, I81V, D97N, Y98F, S99I, A106P
B14: chAb10 (antibody, V domains shown)
VH: B5 VH with Q13K, R19K, G42E, S75A, N84S, A88S, V93L, L115S
VL: B9 VL

Columns and labels:
[1] = molecular target: T1, human Claudin18.2 (CLDN18.2) (UniProt P56856 1-261); assay: FACS cell binding; GAXC031 cells
[2] = molecular target: SNU620 cells (UniProt P56856 1-261); assay: FACS cell binding; SNU620 cells
[3] = molecular target: GAXC031 cells (UniProt P56856 1-261); assay: FACS cell binding; GAXC031 cells
[4] = molecular target: T1, human Claudin18.2 (CLDN18.2); assay: FACS cell binding; SNU620 cells
[5] = molecular target: T1, human Claudin18.2 (CLDN18.2); assay: FACS cell binding; KATO III cells

Binder | EC50 [1] [nM] | further results
B1 | 32.2 | –
B2 | – | EC50 [2]: ~7540 nM
B3 | – | EC50 [3]: 452 nM
B4 | 48.9 | –
B5 | 43.8 | –
B6 | 28.6 | –
B7 | 43.7 | –
B8 | 60.9 | –
B9 | – | EC50 [4]: 5.54 nM; EC50 [5]: 20.9 nM
B10 | – | EC50 [4]: 10.8 nM; EC50 [5]: 39.3 nM
B11 | 25.1 | –
B12 | – | EC50 [4]: 5.32 nM; EC50 [5]: 27.2 nM
B13 | 47 | –
B14 | 49.2 | –
